Paper PMC11093223 (2024)

Assays:
Test in all cases: ITC
SLAMF7 = biological target: T1, SLAMF7 (Homo sapiens (Human), UniProt Q9NQ25)
T1 chain: EDPANTVYSTVE

FAM174C = biological target: T2, FAM174C (Homo sapiens (Human), UniProt Q9BVV8)
T2 chain: DSDEETVFES

CIMPR = biological target: T3, CIMPR (Homo sapiens (Human), UniProt P11717)
T3 chain: EEETDENETEWLM

KIAA0319 = biological target: T4, KIAA0319 (Homo sapiens (Human), UniProt Q5VV43)
T4 chain: ESEFDSDQDTIF

NPDC1 = biological target: T5, NPDC1 (Homo sapiens (Human), UniProt Q9NQX5)
T5 chain: DEENEDGDFTVYEC

CPD = biological target: T6, CPD (Homo sapiens (Human), UniProt O75976)
T6 chain: EEETLYSSKH

B1: TBC1D23 (protein)
chain: DRKEVVNIQTWINKPDIKHHFPCKEVKESGHMFPSHLLVTATHMYCLREILSRKGLAYIQSRQALNSVVKITSKKKHPELITFKYGNSSASGIEILAIERYLIPNAGDATRAIKQQIMKVLDALES
Kd (SLAMF7): > 100 µM | Kd (FAM174C): 15.7 µM | Kd (CIMPR): > 100 µM | Kd (KIAA0319): 35.2 µM | Kd (NPDC1): 2.9 µM | Kd (CPD): 10.6 µM
